From US20230348587A1 (Astellas, published 2023)

T1: human TSPAN8-Myc-DDK expressed on CHO-K1 cell (human)
T1 construct: also called TSPAN8 (Myc-DDK-tagged)-Human tetraspanin 8 (ORIGENE, RC202694)
T1 chain: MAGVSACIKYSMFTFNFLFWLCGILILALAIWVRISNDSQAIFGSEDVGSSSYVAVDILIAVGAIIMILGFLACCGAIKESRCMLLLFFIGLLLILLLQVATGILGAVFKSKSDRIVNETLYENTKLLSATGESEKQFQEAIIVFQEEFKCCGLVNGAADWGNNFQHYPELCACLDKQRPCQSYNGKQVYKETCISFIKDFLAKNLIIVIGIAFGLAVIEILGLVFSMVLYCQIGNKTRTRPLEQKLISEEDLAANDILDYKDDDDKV

T2: human mouse TSPAN8-GFP chimeric protein on CHO-K1 cell (human; mouse) (UniProt P19075)
T2 sequence: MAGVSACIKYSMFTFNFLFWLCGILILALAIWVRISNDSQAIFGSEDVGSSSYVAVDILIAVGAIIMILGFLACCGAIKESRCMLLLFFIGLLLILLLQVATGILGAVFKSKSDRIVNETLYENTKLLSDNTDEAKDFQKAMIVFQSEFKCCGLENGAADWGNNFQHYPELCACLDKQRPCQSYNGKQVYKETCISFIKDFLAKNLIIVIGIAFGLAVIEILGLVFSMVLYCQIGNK

T3: human rat TSPAN8-GFP chimeric protein on CHO-K1 cell (human; rat, UniProt P19075 156-237)
T3 construct: range 156-237; whole protein on cells; also called Human rat chimeric TSPAN8; human rat TSPAN8 chimeric protein; not shown: GFP of the pCMV6-AC-GFP vector (ORIGENE, PS100010)
T3 sequence: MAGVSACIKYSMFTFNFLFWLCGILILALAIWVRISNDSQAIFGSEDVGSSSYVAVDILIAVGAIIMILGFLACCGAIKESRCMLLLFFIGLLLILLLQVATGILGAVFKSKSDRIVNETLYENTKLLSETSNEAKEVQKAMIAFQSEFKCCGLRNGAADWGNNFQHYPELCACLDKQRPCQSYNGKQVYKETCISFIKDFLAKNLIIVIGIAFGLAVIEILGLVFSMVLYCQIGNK

T4: human TSPAN8(T131A)-GFP on CHO-K1 cell (human, UniProt P19075 1-237)
T4 construct: whole, on cells; Transiently expressed; GFP-positive cells were analysed; also called T131A mutant; not shown: GFP of the pCMV6-AC-GFP vector (ORIGENE, PS100010)
T4 sequence (looked up): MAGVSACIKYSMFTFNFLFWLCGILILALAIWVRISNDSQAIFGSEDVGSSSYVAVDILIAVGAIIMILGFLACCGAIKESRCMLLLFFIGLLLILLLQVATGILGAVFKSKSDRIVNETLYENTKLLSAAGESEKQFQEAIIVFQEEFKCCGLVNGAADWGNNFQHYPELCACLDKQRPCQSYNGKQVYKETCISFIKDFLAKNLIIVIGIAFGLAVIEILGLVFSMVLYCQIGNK

T5: human TSPAN8-GFP protein on wild-type human TSPAN8 expressing CHO-K1 cell (human, UniProt P19075 1-237)
T5 construct: whole, on cells; Transiently expressed; GFP-positive cells were analysed; also called Human TSPAN8 (Wild type); not shown: GFP of the pCMV6-AC-GFP vector (ORIGENE, PS100010)
T5 chain: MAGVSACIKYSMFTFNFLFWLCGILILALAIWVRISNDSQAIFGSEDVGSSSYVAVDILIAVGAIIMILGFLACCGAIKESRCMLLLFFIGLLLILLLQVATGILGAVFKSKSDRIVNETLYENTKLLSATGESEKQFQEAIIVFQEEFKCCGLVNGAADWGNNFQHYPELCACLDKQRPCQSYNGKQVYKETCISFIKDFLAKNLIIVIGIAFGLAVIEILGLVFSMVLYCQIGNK

T6: human TSPAN8(T131N)-GFP on CHO-K1 cell (human, UniProt P19075 1-237)
T6 construct: whole, on cells; Transiently expressed; GFP-positive cells were analysed; also called T131N mutant; not shown: GFP of the pCMV6-AC-GFP vector (ORIGENE, PS100010)
T6 sequence (looked up): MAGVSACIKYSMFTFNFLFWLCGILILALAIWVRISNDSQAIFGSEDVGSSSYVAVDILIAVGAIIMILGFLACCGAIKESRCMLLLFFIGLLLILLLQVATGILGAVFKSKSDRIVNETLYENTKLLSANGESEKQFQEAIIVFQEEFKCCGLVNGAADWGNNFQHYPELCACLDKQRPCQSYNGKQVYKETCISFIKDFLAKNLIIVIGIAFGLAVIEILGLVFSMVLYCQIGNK

T7: human mouse TSPAN8-GFP chimeric protein on CHO-K1 cell (human; mouse, UniProt P19075 156-237)
T7 construct: range 156-237; whole protein on cells; also called Human mouse chimeric TSPAN8; human mouse TSPAN8 chimeric protein; not shown: GFP of the pCMV6-AC-GFP vector (ORIGENE, PS100010)
T7 sequence: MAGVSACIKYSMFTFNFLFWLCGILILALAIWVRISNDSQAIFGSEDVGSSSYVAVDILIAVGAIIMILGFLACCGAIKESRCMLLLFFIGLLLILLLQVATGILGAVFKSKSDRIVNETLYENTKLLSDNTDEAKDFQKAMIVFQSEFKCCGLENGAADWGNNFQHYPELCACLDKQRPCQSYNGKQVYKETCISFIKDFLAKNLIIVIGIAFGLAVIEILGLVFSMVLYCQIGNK


Key:
[1] = molecular target: T1, human TSPAN8-Myc-DDK expressed on …; experiment: binding to human TSPAN8-Myc-DDK expressed CHO-K1 cell
Procedure: For further specifying an antigen, an experiment of binding to a human TSPAN8-Myc-DDK expressed CHO-K1 cell was performed. The human TSPAN8-Myc-DDK expressed CHO-K1 cell was produced by transfecting TSPAN8 (Myc-DDK-tagged)-Human tetraspanin 8 (TSPAN8) (ORIGENE, RC202694) (SEQ ID NO: 2) into a CHO-K1 cell. As a result, it was confirmed that ten antibodies of 16B11, 16B12, 5B7, 9F6, 12C12, 13A9, 15D1, 18C10, 19E4 and 21F7 (referred to also as the “ten anti-TSPAN8 antibodies”) bound to the human TSPAN8-Myc-DDK expressed CHO-K1 cell, and recognize TSPAN8 as an antigen.

[2] = molecular target: T2, human mouse TSPAN8-GFP chimeric protein on CHO-K1 cell (human; mouse); experiment: flow cytometry on GFP-positive CHO-K1 cells; against wild-type human TSPAN8 expressing CHO-K1 cell
[3] = molecular target: T3, human rat TSPAN8-GFP chimeric protein …; experiment: flow cytometry on GFP-positive CHO-K1 cells; MFI minus MFI on mock cell
[4] = molecular target: T4, human TSPAN8(T131A)-GFP on CHO-K1 cell; experiment: as above
[5] = molecular target: T5, human TSPAN8-GFP protein on wild-type …; experiment: as above
[6] = molecular target: T6, human TSPAN8(T131N)-GFP on CHO-K1 cell; experiment: as above
[7] = molecular target: T2, human mouse TSPAN8-GFP chimeric protein on CHO-K1 cell (human; mouse); experiment: as above
[8] = molecular target: T3, human rat TSPAN8-GFP chimeric protein …; experiment: flow cytometry on GFP-positive CHO-K1 cells; against wild-type human TSPAN8 expressing CHO-K1 cell
Text: (§1) Each vector produced was introduced into the CHO-K1 cell, to produce a cell transiently expressing a human TSPAN8-GFP protein, a human mouse TSPAN8-GFP chimeric protein or a human rat TSPAN8-GFP chimeric protein. The cell produced will be referred to as a wild-type human TSPAN8 expressing CHO-K1 cell, a human mouse TSPAN8 chimeric protein expressing CHO-K1 cell or a human rat TSPAN8 chimeric protein expressing CHO-K1 cell. Further, a cell in which a pCMV6-AC-GFP vector was introduced into a CHO-K1 cell (referred to as a mock cell) was produced. The bindings of 16B11, 16B12 and TAL69 to GFP-positive cells in these cells were measured by flow cytometry. No decrease in binding of TAL69 was observed either to the human rat or human mouse TSPAN8 chimeric protein expressing CHO-K1 cell. […] Meanwhile, the binding to the human mouse TSPAN8 chimeric protein expressing CHO-K1 cell attenuated as compared with that to the wild-type human TSPAN8 expressing CHO-K1 cell (FIGS. 5-1).
(§2) Further, in order to check whether or not the amino acid at position 131 of human TSPAN8 contributed to the binding of 16B11 or 16B12, a substitute of the amino acid was produced. Specifically, a vector containing a nucleotide sequence encoding a human TSPAN8-GFP fusion protein in which threonine (T) at position 131 of the amino acid sequence of human TSPAN8 in human TSPAN8-GFP of SEQ ID NO: 2 was replaced with alanine (A) or asparagine (N) (respectively referred to as “human TSPAN8(T131A)-GFP” or “human TSPAN8(T131N)-GFP”) was produced, and such a vector was transfected into the CHO-K1 cell, to construct a cell transiently expressing human TSPAN8(T131A)-GFP or human TSPAN8(T131N)-GFP. The cell constructed will be referred to as a human TSPAN8(T131A) expressing CHO-K1 cell or a human TSPAN8(T131N) expressing CHO-K1 cell. The bindings of 16B11, 16B12 and TAL69 to GFP-positive cells in these cells were measured by flow cytometry (FIGS. 5-3). As a result, the bindings of 16B11 and 16B12 to the human TSPAN8(T131A) expressing CHO-K1 cell and the human TSPAN8(T131N) expressing CHO-K1 cell attenuated as compared with the bindings to the wild-type human TSPAN8 expressing CHO-K1 cell.

[9] = molecular target: T4, human TSPAN8(T131A)-GFP on CHO-K1 cell; experiment: as above
Text: as §1, §2

[10] = molecular target: T6, human TSPAN8(T131N)-GFP on CHO-K1 cell; experiment: as above
Text: as §1, §2

[11] = molecular target: T7, human mouse TSPAN8-GFP chimeric protein …; experiment: flow cytometry on GFP-positive CHO-K1 cells; MFI minus MFI on mock cell
[12] = molecular target: T7, human mouse TSPAN8-GFP chimeric protein …; experiment: flow cytometry on GFP-positive CHO-K1 cells; against wild-type human TSPAN8 expressing CHO-K1 cell
Text: as §1, §2

binding result [1] | ΔMFI relative value (relative (wild-type human TSPAN8 = 100)) [2] | ΔMFI [3] | ΔMFI [4] | ΔMFI [5] | ΔMFI [6] | ΔMFI [7] | ΔMFI relative value [8] | ΔMFI relative value [9] | ΔMFI relative value (relative (wild-type human TSPAN8 = 100)) [10] | ΔMFI [11] | ΔMFI relative value [12] | ΔMFI relative value [10] | Binder
binds | 3 | 161000 | 23400 | 173000 | 3460 | 5270 | 93 relative (wild-type human TSPAN8 = 100) | 14 relative (wild-type human TSPAN8 = 100) | 2 | – | – | – | 16B11 (antibody, V domains shown, VelocImmune hybridoma antibody: human variable regions with mouse constant regions (chimeric); Used Alexa Fluor647-labeled in some assays; also called antibody 16B11; anti-TSPAN8 antibody 16B11) VH: QVQLVESGGGVVQPGRSLRLSCAASGFTFSSYGMHWVRQAPGKGLEWVAVIWYDGRNKYYADSVKGRFTISRDNSKNTLYLQMNSLRAEDTAVYYCTRDHSGSGSYYIDYWGQGTLVTVSS VL: EIAMTQSPATLSVSPGERATLSCRASQSVSSNLAWYQQKPGQAPRLLIYGASTRATGLPARFSGSGSGTEFTLTISSLQSEDFAVYYCQQYNNFWTFGQGTKVEIKR
– | – | 22400 | – | – | – | – | 84 relative (wild-type human TSPAN8 = 100) | – | – | 102 | 0 relative (wild-type human TSPAN8 = 100) | – | 16B12 (antibody, V domains shown, VelocImmune hybridoma antibody: human variable regions with mouse constant regions (chimeric); also called antibody 16B12; anti-TSPAN8 antibody 16B12) VH: QVQLVESGGGVVQPGRSLRLSCAASGFIFSSYGMHWVRQAPGKGLEWVAVIWYDGSNKYYADSVKGRFTISRDNSKNTLYLQMNSLRAEDTAMYYCARDHYGSGTYYIDYWGQGTLVTVSS VL: EIVMTQSPATLSVSPGERATLSCRASQTVSSNLAWYQQKPGQAPRLLIYGASTRATGFPARFSGSGSGTEFTLTISSLQSEDFAVYYCQQYNNWWTFGQGTKVEIKR
– | – | 96200 | 184000 | 133000 | 143000 | – | 72 relative (wild-type human TSPAN8 = 100) | 139 relative (wild-type human TSPAN8 = 100) | – | 305000 | 230 relative (wild-type human TSPAN8 = 100) | 108 relative (wild-type human TSPAN8 = 100) | Purified anti-human TSPAN8 Antibody (BioLegend, 362702 Clone TAL69) (antibody, V domains shown) VH: EVKLLESGGGLVQPGGSMRLSCAASGFTFTDFYMNWIRQPAGKAPEWLGFIRNKASGYTTEYNPSVKGRFTISRDNTQNMLYLQMNTLRAEDTATYYCARAHSYYGYDYFDYWGQGVMVTVSS VL: DIQMTQSPASLSASLEEIVTITCQASQDIGNWLSWYQQKPGKSPQLLIYGATSLADGVPSRFSGSRSGTQYSLKISRLQVEDIRIYYCLQAYSAPWTFGGGTKLELK
